Test results as given in publication PMC9409239.

Target: N-terminally His-tagged recombinant ribosomal protein S1 of E. coli (from plasmid p16rpsAHis) (E. coli) (UniProt P0AG67)
Assay: native gel or EMSA; constant molar amount of S1 mixed with increasing RIII (RIII:S1 0.1:1 to 5:1), 10 min at room temperature, proteins dialysed against 50 mM sodium phosphate pH 7.4, 100 mM NaCl; native 14% PAGE, Coomassie

N-terminally 6His-tagged RIII protein of the T4 phage (from plasmid p21drIIIHis) (natural protein)
stoichiometry N (RIII:S1 molar ratio): 1
